Assay results reported in the supplement of paper PMC12636428.

tested on: Saccharomyces cerevisiae; test: transcriptional activation domain activity (GFP:mCherry ratio, weighted mean of sorted bins, harmonized to initial dataset scale) (arbitrary fluorescence ratio units); higher = stronger transcriptional activation; conditions: beta-estradiol 1 µM; induction time 4 h
Summary of the method: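 Yeast diploids with a GFP reporter received barcoded protein tiles, fused to an estradiol-inducible synthetic transcription factor, at the URA3 locus. Cultures were diluted 1:5 into SC holding 1 uM beta-estradiol, incubated 4 hours at 30 °C, sorted into 8 bins on GFP:mCherry ratio, and sequenced for barcodes, with tiles under 50 reads discarded. Activation activity values come from the read-weighted mean of bin median fluorescence, averaged across barcodes and linearly placed on the initial dataset scale.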

Sequence | transcriptional activation domain activity
SLLEELTMRLLETDESHIKKIKDLSRFVNMIILRLFATGRRMSIFRSLFALLL | 62600
ISLLTLSFFYCFLGVFLPGFSLSLLPFPLFCFFLAFFLPCFSLSLLPFYPFFF | 56500
GNTGAGGEALVRSVGGSSAVEYPVCVEMDVVSGADGGEKLVWRTACDSRFVDG | 44800
YHFCYHLRLYLYAFQPPLFLRLCHFFSYDGWYLGFTWGFFLFFRFHFPIPSFL | 45900
EEEDGEEDYGNRLFVIASDKLQEEQLLIDVPPGNILSSNLLQVLKEILKTRKK | 26100
PNDDFLLDCEEWGLNQLFGDEQFSNNINDLSDDLLALIPDWSFIPPSEDPWGL | 147000
VFRLCLGDLFRPYGISLNVIRLMLMATGTDLDFYVPRSKWRQVLLFLRLASGY | 72200
ERVGERRGSGKTERQRAHDAPEREGARGEKGRRARGTNGEGRGGEEREVRQEG | 25600
AEPSIYSNLFLDARLPNNANSTTGLNDNDYNLDDTNNDNTNSMQSILEDFVSS | 75100
SSSDFVPVNFEADSLPYTPTTLDGLASLTSLEDLFSADDALASFDWSEWPWIY | 156000
QSNWVEGFSTHHEPFRPHKRRIKSVIDCSERTAVLVADLIGGLPCVVELKPKW | 64400
QAEDSNDNDNNNKAAAEEEEEEGGGERSGPMVNGNGGGGAEGMVNGASAVGRD | 14800
AAKDRRHLRSRSQATYLILLGIMLWGLLRWRKTNVFKLWHLLVRQGACWILIV | 60400
EHPARARVDKNRTKTSAREVHPARAAREEHPARAYADKNRTKTSARDVHPAGA | 40400
MRKFLFQSFDILYLLIFLSFFFILSLFFFILIIFGSSPFIYFIFYFNHFFFFD | 26900
MFFCYLTVILSMDAFYYYQSHLNWTSTQLYVTWFNACFRNGLIRIIYFVFWWL | 76300
VFVPIPGLRNRRVHILLPNLYLLHQITFFRFSRRRSTLVLLLVCVSIVFAMYA | 36500
EFVRTSHGRLPAGKRLVKGGYEEDGTPLYHGMAIHEGIKVPGKISHRLYVLQS | 43700
DVGNSVWHVDCCSPYVNGGSGWGFFNAILGWTNSATYGSVISYNLYWLFVIAV | 51100
MRILQFFSFLYLLLYFSRTLLIVIYTLVILLLNQLLVFFKFLSLFFAFFWYVF | 41400
EGLGTAWLFKKEDLLCKSAYEIATISNSWLCGVQGTLLMYLVLVLLCLSFFLI | 30800
MIIVRSIFYCLGLIALLEFMLIRVASAFAISSLLTNLAYNKPFFLTYLSCATH | 67100
FFRRALNFLFDIALVPMIVCSSYAIFEVPSNVFLKRLRPSLWLSLLMLLWGIM | 69000
CGFVVFVIRWSTVSVGYLGIIRWLVICKKLQFSEIKRIMRVYFCHMALFIFTL | 40900
MLFLMCSLFFFVVFFLWSFFCGLLSLWCICYDISVGAWLTFGLLLVLWLLCIC | 23900

Sequence | transcriptional activation domain activity
GGETAAPPAEPAPAPAAEPEEEEEPVKGKGKGGKGGKKGGKGGKKAKKEEVPA | 23600
ILLIVRFIWRSPYLISTGCGSLINDFSYVNIFLYSKIFCERFFIFLSLVIFIK | 66800
PVKPASKKPAEKAKEKAKEAPKEKAKAKEPAKAKEDKPKAKPASKKAAAKPAA | 34700
ILLTCLLQICCRFVQEKQTRCLQILLHYIGSQASMHAGARPLELLCRSLLEAM | 40900
FTKVIKLVSHFVLYFINICFILITIFFGYFYNLIKFYILLTLYLVSLRTLLSL | 47700
CDAGILLCLVCYLSSKLIYLFLVEKVFIIRGNRQRWTDKLFLFNMFGMLLPYC | 51600
HNLFELVFLDQMCGFCCFSMRFVVMLDLIGTIILPSTVIYLVYIIIAAVLKFQ | 38600
MVLCNSKSLFFPLFLHYLYCVIFLLLWILFHIAFIFFTNFYYYLPSHTLCAFI | 61700
YSIYVYRYFLYQWGDLCYMALHPTTSSLIGVIVCKLEPHRSGPFRGYIAMLAV | 42600
LSSSVPIEAETFSSFRPDMNMTMNMNLHNASTSSFNNEAFWKPLDSAIDHHSG | 53500
DKPIAAKKPSAQRKRKVKLESDADSSGDDQPIVKKPAAKKPRASKAKKEEPAS | 23100
YINAMLGLPRSISPDDFDQTLPLDLSDENITEVAYLPENQHSVLSSTGISNEH | 58400
RAAVTLCSFFCFFFSWTYSSLFLLSFFIWTGFGRSYGVFFFFFFFFFFFFGGF | 19400
LLMGLYLSEICMIGLFVLRDAFGPMVLMVMFFVLSILVHLSLADAFSPLLYNL | 52200
MCVLHHLSHTLCFALFCYVIEAFRFTSYLLLLPFWRFYVLVVIPLFIHISYVF | 52500
YMGSVNLVHYYGVRTFSFILLGPCLTLVVVYRVLALFQSANQQFYILVLAYIA | 36200
LWDANSFLTPMAQGLFKNLKSFEMLGMNCKVIRALILLIHRLWLLTNRLYRYN | 34000
MSWLVSISFMFYTFILPFYYYYKHSTTLFIYTYIYISLYIPIWFVYNHPYHLL | 43000
ELLYKSYLCHLFSFFFPFPFYNIFNIIVHLFFFFLSFLSFFYYFNIYSCLYIY | 69800
CMELMLHYIYVVAISNSSPDWSAYTPFQLSMLGYFNLHHIWLKLLIPWRFFRL | 80500
LSLAGSNYFGICWNPAVKNCIPYDTYLLWIRCMPFWYLFVFLYDILPPILIVY | 52200
HSTLLYCHLLLLPFLSSCWALFFLFPLSFGSLFFLFFFFLFLFGAFSFFLSSL | 39600
SSKISCIHHVALKPSSGRYKRVTIIFNIIKAKRHLVTNSLRLMGLLLAIALYI | 53000
DLASPSDNDIDEARSREIAAKAVTGILVLLLKWLKLSHILKFEYLTQLLLDSN | 64400
TLVEINGNQIRGSSELMDKDNIYLHLRRIFTCFQIEFLKLTGLPFLLREKLPG | 63400

Sequence | transcriptional activation domain activity
SLGMGLDYWARLSGLYLQKLGWGYRVWCFSFWMGLSLGFLLLFSSLGAYILFL | 55400
VLGSEGSNLRCTRYLVVGGPPAMGREVQRFRECECTVMRMTVLIRGAVMWGCR | 57500
VDFVKHLISCFSVVGEDNFACTLKGFGWMYLTHVYFFFNVFVALNLQLIILLS | 60000
FYICAILGFKIGIIFAFLRIAVDRTYRISIICVAVICSAFYFCFFVAQLNFCT | 62100
EEEEQAKTSPAKSESKKEKKDKKKKRSADEIESGPEGTPKVAKKIKADSGAAV | 42700
VKPASRASAKPPSTTGAKKPASRASSRKPASKVGKEDKENGDAAAASAAAPDT | 25100
PAHSLLELIQLMKRKAFVCWYLFTIVIVLLLLLWIFLSVNYFHCIKPINFNTD | 34800
LFLMVWYLLMFSFDKKAIEHAWGLMGLLSKLAQSLSLRKFVHSEILAHHLIGS | 80300
STGGARKGSAAPSKTSSSNISGRDKEKSRSKEKLGSQSALAAGSTPAPKAAAA | 47900
MLLTVYMFIIVCTCLAQLKIQSLSFLIYYHYINLVLLLLIAGLLYGLSFVRFS | 48500
VFFLSLCFASFFPLGHLCWAKGLFHTLEFIAPISRSVSCYVMGLVLYTFHLPE | 22000
LHFLSIDITSPFLPLDILPDLWATMWPWIRLIDSYWDSLPTLHEWFPSIQIYT | 57500
TCRHSSPHVWWLIFGVLCIMYMMVLEVLLLGFVVLVLAPLVFIFWNLFLICIG | 52700
DLQRHLLKDHVSQDFKHPMEPLACNWEDCDFLGDDTCSIVNHINCQHGINFDI | 53200
HHLSSQLVFSRSRFFYSSFTSWINVFLVISLIVFLLSILLLFLIIFLLHYIFF | 24800
VSFRLLVYALVSHVIFGIVLLIDCFYAFPGWHCSLLAFLINFNILFSASIFFC | 55200
TSTTPAGAPPADKPAGSLFGVKPAAAGSSSGGLFGQASNTSVAPSSIATTTAS | 28400
FSVLFSKLFVWGILPYQTVGVVIQHTCQAVFLFVNIYWTFWRNWPWVQSGFFT | 80100
CFKLSLVALWPFGKSIDWNLRSAGCLSTVFNVIWLVLLGWHLCLIHLGLMLLF | 43600
GRSESQSANNNGNNARGGKTGGGEAAAGGKTSASRGPRGGRGAKNKGSGGSKG | 28700
RVEAQVRDRRVEAQVRDRRAEAQVRARDHRSKVQVRNRQSKAEAEAQVRSQAR | 33900
RRVTSMRLDTEGYVGVLGVEVDFRGRMFDLTADILVRVRYCLQSTILLLEIPL | 55100
KKKKRKKKTPSKGESEEKGDDEDDEDEKKQTPKANTGAKKTKATGKTDREKKE | 51500
EGAASGTEEAPKPKKKKKQQPRKSKPRIDAASGTEAEPNAATESEAPAAAGAA | 16600
